Data as given in patent publication US20220177587A1, “METHODS AND USES OF VARIANT CD80 FUSION PROTEINS AND RELATED CONSTRUCTS” (Alpine Immune Sciences, Inc., priority 2018, published 2022).

Experiments:
[1] = biological target: CD28, endogenously expressed on Jurkat/IL2 reporter cells (human) (UniProt P10747); test: flow cytometry on Jurkat/IL2 reporter cells (endogenous CD28), 33.3 nM Fc fusion, PE anti-human Fc
[2] = biological target: human CTLA-4 (huCTLA4), on stably transduced CHO cells (human) (UniProt P16410); test: flow cytometry on CHO cells stably expressing huCTLA4, 33.3 nM Fc fusion, PE anti-human Fc
Sequence of human CTLA-4 (huCTLA4), on stably transduced CHO cells (human) (P16410 36-223): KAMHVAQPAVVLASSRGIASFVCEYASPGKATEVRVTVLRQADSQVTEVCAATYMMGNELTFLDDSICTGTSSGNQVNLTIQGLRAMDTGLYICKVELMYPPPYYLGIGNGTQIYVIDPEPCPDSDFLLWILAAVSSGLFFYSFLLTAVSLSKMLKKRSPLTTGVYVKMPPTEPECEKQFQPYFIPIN

[3] = biological target: human PD-L1 (huPD-L1), on stably transduced CHO cells (human) (UniProt Q9NZQ7); test: flow cytometry on CHO cells stably expressing huPD-L1, 33.3 nM Fc fusion, PE anti-human Fc
PD-L1 (human) [4] = biological target: PD-L1 (human) (UniProt Q9NZQ7); test: flow cytometry, Expi293F cells transfected with PD-L1
human CTLA-4 (human) [5] = biological target: human CTLA-4 (human) (UniProt P16410); test: flow cytometry, CHO cells expressing huCTLA4
Sequence of human CTLA-4 (human) (P16410 36-223): as above

PD-L1 (human) [6] = biological target: PD-L1 (human) (UniProt Q9NZQ7); test: flow cytometry, CHO cells expressing huPD-L1
Target sequence in this assay (Q9NZQ7 19-290): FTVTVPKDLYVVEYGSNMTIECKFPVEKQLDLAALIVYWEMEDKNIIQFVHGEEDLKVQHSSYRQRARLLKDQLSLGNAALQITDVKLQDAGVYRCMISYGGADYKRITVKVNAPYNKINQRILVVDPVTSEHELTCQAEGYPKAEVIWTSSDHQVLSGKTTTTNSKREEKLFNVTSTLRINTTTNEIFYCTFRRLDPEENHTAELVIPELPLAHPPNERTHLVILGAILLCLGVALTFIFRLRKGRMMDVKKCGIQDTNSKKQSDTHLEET

CD28 (human) = CD28 (human) (UniProt P10747); test: flow cytometry, Jurkat cells (CD28)
PD-L1 (human) [7] = biological target: PD-L1 (human) (UniProt Q9NZQ7); test: flow cytometry, MFI on PD-L1 cells over MFI on CD28 cells
Target sequence in this assay (Q9NZQ7 19-290): as above

PD-L1 (human) [8] = biological target: PD-L1 (human) (UniProt Q9NZQ7); test: flow cytometry, CHO cells stably expressing PD-L1
Target sequence in this assay (Q9NZQ7 19-290): as above

human CTLA-4 (human) [9] = biological target: human CTLA-4 (human) (UniProt P16410); test: flow cytometry, CHO cells stably expressing CTLA4

Row | MFI at 33.3 nM [1] [MFI] | MFI at 33.3 nM [2] [MFI] | MFI at 33.3 nM [3] [MFI] | Substance | further results
1 | 479 | 26300 | 3530 | variant CD80 IgV-Fc H18Y/E35D (Fc fusion) | –
2 | – | 26900 | 7140 | variant CD80 IgV-Fc E35D/M43I/D46E/A71G/L85M (Fc fusion) | –
3 | 413 | – | 5660 | variant CD80 IgV-Fc E35D/M47V/N48K/L85M (Fc fusion) | –
4 | – | – | – | CD80 Y31H/T41G/M43L/L70Q/A91G/I118V/T120S/I126V/T130A ECD-Fc (Fc fusion) | MFI (PD-L1 (human) [4]): 6 MFI
5 | 990 | 21900 | 8170 | variant CD80 IgV-Fc V22A/E35D/M47L/A71G (Fc fusion) | –
6 | 3450 | 32200 | 2820 | variant CD80 IgV-Fc E35D/D46E/A91G (Fc fusion) | –
7 | 841 | – | 6460 | variant CD80 IgV-Fc H18Y/E35D/M47V/N48K (Fc fusion) | –
8 | 274 | 28800 | 3050 | variant CD80 IgV-Fc E35D/M47V/I61V/L85M (Fc fusion) | –
9 | – | – | – | variant CD80 IgV-Fc I30V/E35D/M47V/A71G/A91V (Fc fusion) | MFI at 33.3 nM (human CTLA-4 (human) [5]): 205000 MFI; MFI at 33.3 nM (PD-L1 (human) [6]): 43900 MFI
10 | – | – | – | variant CD80 IgV-Fc E35D/M38T/M43V/M47V/N48R/L85Q (Fc fusion) | MFI at 33.3 nM (human CTLA-4 (human) [5]): 204000 MFI; MFI at 33.3 nM (PD-L1 (human) [6]): 21800 MFI
11 | – | – | – | variant CD80 IgV-Fc H18Y/A26E/M47L/V68M/D90G (Fc fusion) | Fold change to WT CD80 (CD28 (human)): 0.7 fold; MFI at 33.3 nM (CD28 (human)): 32 MFI; Ratio of PDL1:CD28 (PD-L1 (human) [7]): 737; Fold change to WT CD80 (PD-L1 (human) [8]): 541 fold; MFI at 33.3 nM (PD-L1 (human) [8]): 23600 MFI; Fold change to WT CD80 (human CTLA-4 (human) [9]): 21.1 fold; MFI at 33.3 nM (human CTLA-4 (human) [9]): 28600 MFI
12 | – | – | – | variant CD80 IgV-Fc H18Y/E35D/M47L/V68M/A71G/D90G (Fc fusion) | Fold change to WT CD80 (CD28 (human)): 63.6 fold; MFI at 33.3 nM (CD28 (human)): 2790 MFI; Ratio of PDL1:CD28 (PD-L1 (human) [7]): 10.7; Fold change to WT CD80 (PD-L1 (human) [8]): 687 fold; MFI at 33.3 nM (PD-L1 (human) [8]): 29900 MFI; Fold change to WT CD80 (human CTLA-4 (human) [9]): 14.6 fold; MFI at 33.3 nM (human CTLA-4 (human) [9]): 19900 MFI
13 | 582 | – | 3030 | variant CD80 IgV-Fc E35D/N48K/L72V (Fc fusion) | –
14 | – | 20600 | 6640 | variant CD80 IgV-Fc E35D/M47L/A71G (Fc fusion) | –
15 | – | – | – | WT CD80 ECD-Fc (Example 25) (Fc fusion) | MFI (PD-L1 (human) [4]): 70 MFI
16 | – | – | – | variant CD80 IgV-Fc E35D/M38T/D46E/M47V/N48S (Fc fusion) | MFI at 33.3 nM (PD-L1 (human) [6]): 19400 MFI
17 | – | – | – | CD80 L70Q/A91G/N144D ECD-Fc (Fc fusion) | MFI (PD-L1 (human) [4]): 6 MFI
18 | 43 | – | 46.3 | WT CD80 ECD-Fc H22.6 (Fc fusion) | –
19 | – | – | – | variant CD80 IgV-Fc H18Y/A26E/E35D/V68M/D90G (Fc fusion) | Fold change to WT CD80 (CD28 (human)): 58.9 fold; MFI at 33.3 nM (CD28 (human)): 2580 MFI; Ratio of PDL1:CD28 (PD-L1 (human) [7]): 9; Fold change to WT CD80 (PD-L1 (human) [8]): 532 fold; MFI at 33.3 nM (PD-L1 (human) [8]): 23200 MFI; Fold change to WT CD80 (human CTLA-4 (human) [9]): 14.2 fold; MFI at 33.3 nM (human CTLA-4 (human) [9]): 19300 MFI
20 | – | – | – | variant CD80 IgV-Fc H18Y/A26E/M47L/V68M/A71G (Fc fusion) | Fold change to WT CD80 (CD28 (human)): 12.4 fold; MFI at 33.3 nM (CD28 (human)): 544 MFI; Ratio of PDL1:CD28 (PD-L1 (human) [7]): 54.7; Fold change to WT CD80 (PD-L1 (human) [8]): 682 fold; MFI at 33.3 nM (PD-L1 (human) [8]): 29700 MFI; Fold change to WT CD80 (human CTLA-4 (human) [9]): 16 fold; MFI at 33.3 nM (human CTLA-4 (human) [9]): 21700 MFI
21 | 816 | 25900 | 5630 | variant CD80 IgV-Fc E35D/M47I/N48K/I61F (Fc fusion) | –
22 | – | 24600 | 4880 | variant CD80 IgV-Fc E35D/M43I/M47L/L85M (Fc fusion) | –
23 | 23.7 | 23300 | – | variant CD80 IgV-Fc E35D/M47V/L85M/R94Q (Fc fusion) | –
24 | 1000 | 23300 | 7760 | variant CD80 IgV-Fc M43I/M47L/A71G (Fc fusion) | –
25 | 99.4 | 31200 | – | variant CD80 IgV-Fc E35D/M47V/T62S/L85Q (Fc fusion) | –
